US20190136216

Biological target: VAMP2, native protein in rat brain detergent extracts (BDE) (UniProt P63045)
Sequence of UniProt P63045 (P63045 whole entry, looked up): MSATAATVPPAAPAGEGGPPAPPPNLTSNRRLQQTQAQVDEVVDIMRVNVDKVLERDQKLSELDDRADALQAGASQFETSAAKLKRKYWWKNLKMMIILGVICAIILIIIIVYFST

For “LC of BoNT/B (B-LC), residues 1-439, His6-tagged”, the “cleavage of SNARE proteins in rat brain detergent extracts (immunoblot)” value was “abolishes the immunoblot signal of VAMP2”.
